Article PMC4108472, “Characterization of a Novel BCHE “Silent” Allele: Point Mutation (p.Val204Asp) Causes Loss of Activity and Prolonged Apnea with Suxamethonium” (PLoS ONE, 2014)
Several values for one entry are separate records, joined by “and”; a condition that tells them apart may be missing. Equal entries are not always repeated.

Target: the molecule itself
Test: native gel or EMSA; nondenaturing gradient gel (4–30%) of plasma samples (5 µL/lane), bands stained for BChE activity with BTC as the substrate

B1: Butyrylcholinesterase (usual, wild-type) of human plasma (enzyme, human (endogenous in plasma), UniProt P06276 29-602, looked up)
chain: EDDIIIATKNGKVRGMNLTVFGGTVTAFLGIPYAQPPLGRLRFKKPQSLTKWSDIWNATKYANSCCQNIDQSFPGFHGSEMWNPNTDLSEDCLYLNVWIPAPKPKNATVLIWIYGGGFQTGTSSLHVYDGKFLARVERVIVVSMNYRVGALGFLALPGNPEAPGNMGLFDQQLALQWVQKNIAAFGGNPKSVTLFGESAGAASVSLHLLSPGSHSLFTRAILQSGSFNAPWAVTSLYEARNRTLNLAKLTGCSRENETEIIKCLRNKDPQEILLNEAFVVPYGTPLSVNFGPTVDGDFLTDMPDILLELGQFKKTQILVGVNKDEGTAFLVYGAPGFSKDNNSIITRKEFQEGLKIFFPGVSEFGKESILFHYTDWVDDQRPENYREALGDVVGDYNFICPALEFTKKFSEWGNNAFFYYFEHRSSKLPWPEWMGVMHGYEIEFVFGLPLERRDNYTKAEEILSRSIVKRWANFAKYGNPNETQNNSTSWPVFKSTEQKYLTLNTESTRIMTKLRAQQCRFWTSFFPKVLEMTGNIDEAEWEWKAGFHRWNNYMMDWKNQFNDYTSKKESCVGL
notes: Butyrylcholinesterase, human, Swissprot P06276, as it circulates in plasma; Subunit of the plasma enzyme; Plasma of the heterozygous family members also holds variant subunits (p.Val204Asp; p.Asp70Gly-p.Ala539Thr); also called BChE; pseudocholinesterase; source: endogenous, human plasma (genotype UU control and family members' plasma)
stoichiometry N: 4 and 2
